Measured values published in patent US20120207760A1.

Experiments:
[1] = target: hemagglutinin (HA) of influenza A/Wisconsin/67/05 H3N2 (Influenza A virus A/Wisconsin/67/2005 (H3N2)); test: ELISA, inactivated whole virions coated; transfection supernatant set 2
[2] = target: hemagglutinin (HA) of influenza A/Solomon Islands/3/06 H1N1 (Influenza A virus A/Solomon Islands/3/2006 (H1N1)); test: as above
[3] = target: recombinant homotrimeric HA, A/common magpie/Hong Kong/5052/07 H5N1 (Influenza A virus A/common magpie/Hong Kong/5052/07 (H5N1)); test: trimeric HA microarray, transfection set 1
[4] = target: recombinant homotrimeric HA, A/Egypt/3300-NAMRU3/08 H5N1 (Influenza A virus A/Egypt/3300-NAMRU3/08 (H5N1)); test: trimeric HA microarray, transfection set 1
[5] = target: recombinant homotrimeric HA, A/Indonesia/5/05 H5N1 (Influenza A virus A/Indonesia/5/05 (H5N1)); test: trimeric HA microarray, transfection set 1
[6] = target: recombinant homotrimeric HA, A/Netherlands/219/03 H7N7 (Influenza A virus A/Netherlands/219/03 (H7N7)); test: trimeric HA microarray, transfection set 1
[7] = target: recombinant homotrimeric HA, A/swine/Ontario/01911-2/99 H4N6 (Influenza A virus A/swine/Ontario/01911-2/99 (H4N6)); test: trimeric HA microarray, transfection set 1
[8] = target: recombinant homotrimeric HA, A/Wisconsin/67/05 H3N2 (Influenza A virus A/Wisconsin/67/05 (H3N2)); test: trimeric HA microarray, transfection set 1
[9] = target: recombinant homotrimeric HA, A/Anhui/1/05 H5N1 (Influenza A virus A/Anhui/1/05 (H5N1)); test: trimeric HA microarray, transfection set 1
[10] = target: recombinant homotrimeric HA, A/Hong Kong/1073/99 H9N2 (Influenza A virus A/Hong Kong/1073/99 (H9N2)); test: trimeric HA microarray, transfection set 1
[11] = target: recombinant homotrimeric HA, A/northern shoveler/California/HKWF115/07 (Influenza A virus A/northern shoveler/California/HKWF115/2007 (H6N1)); test: trimeric HA microarray, transfection set 1
[12] = target: recombinant homotrimeric HA, A/California/4/09 H1N1 (Influenza A virus A/California/4/09 (H1N1)); test: trimeric HA microarray, transfection set 1
[13] = target: recombinant homotrimeric HA, A/South Carolina/1/18 H1N1 (Influenza A virus A/South Carolina/1/18 (H1N1)); test: trimeric HA microarray, transfection set 1
[14] = target: recombinant homotrimeric HA, A/chicken/Vietnam/NCVD-016/08 H5N1 (Influenza A virus A/chicken/Vietnam/NCVD-016/08 (H5N1)); test: trimeric HA microarray, transfection set 1
[15] = target: recombinant homotrimeric HA, A/Japan/305/57 H2N2 (Influenza A virus A/Japan/305/57 (H2N2)); test: trimeric HA microarray, transfection set 1
[16] = target: recombinant homotrimeric HA, A/Hong Kong/2108/03 H9N2 (Influenza A virus A/Hong Kong/2108/03 (H9N2)); test: trimeric HA microarray, transfection set 1
[17] = target: recombinant homotrimeric HA, A/Vietnam/1203/04 H5N1 (Influenza A virus A/Vietnam/1203/04 (H5N1)); test: trimeric HA microarray, transfection set 1
[18] = target: recombinant homotrimeric HA, A/Solomon Islands/3/06 H1N1 (Influenza A virus A/Solomon Islands/3/06 (H1N1)); test: trimeric HA microarray, transfection set 1
[19] = target: recombinant homotrimeric HA, A/duck/Yangzhou/02/05 H8N4 (Influenza A virus A/duck/Yangzhou/02/2005 (H8N4)); test: trimeric HA microarray, transfection set 1
[20] = target: hemagglutinin (HA) of influenza A/Wisconsin/67/05 H3N2 (Influenza A virus A/Wisconsin/67/2005 (H3N2)); test: ELISA, inactivated whole virions coated; transfection supernatant set 1
[21] = target: hemagglutinin (HA) of influenza A/Solomon Islands/3/06 H1N1 (Influenza A virus A/Solomon Islands/3/2006 (H1N1)); test: as above
[22] = target: hemagglutinin (HA) of influenza A/Wisconsin/67/05 H3N2 (Influenza A virus A/Wisconsin/67/2005 (H3N2)); test: ELISA, inactivated whole virions coated; transfection supernatant set 5
[23] = target: hemagglutinin (HA) of influenza A/Solomon Islands/3/06 H1N1 (Influenza A virus A/Solomon Islands/3/2006 (H1N1)); test: as above
[24] = target: hemagglutinin (HA) of influenza A/Wisconsin/67/05 H3N2 (Influenza A virus A/Wisconsin/67/2005 (H3N2)); test: ELISA, inactivated whole virions coated; transfection supernatant set 4

Question: TCN-202 (2N9) (antibody) was tested. Which OD450 [1] did it give?
Answer: 0.07 OD450

Question: And the OD450 [2]?
Answer: 0.08 OD450

Question: What about the Trimeric HA Binding RLU [3] of the same substance?
Answer: 21 RLU

Question: What about the Trimeric HA Binding RLU [4] of the same substance?
Answer: 76 RLU

Question: And the Trimeric HA Binding RLU [5]?
Answer: 57 RLU

Question: What about the Trimeric HA Binding RLU [6] of the same substance?
Answer: 55 RLU

Question: And the Trimeric HA Binding RLU [7]?
Answer: 29 RLU

Question: What about the Trimeric HA Binding RLU [8] of the same substance?
Answer: 27 RLU

Question: What about the Trimeric HA Binding RLU [9] of the same substance?
Answer: 20 RLU

Question: What about the Trimeric HA Binding RLU [10] of the same substance?
Answer: 21 RLU

Question: And the Trimeric HA Binding RLU [11]?
Answer: 13 RLU

Question: What about the Trimeric HA Binding RLU [12] of the same substance?
Answer: 20 RLU

Question: And the Trimeric HA Binding RLU [13]?
Answer: 32 RLU

Question: What about the Trimeric HA Binding RLU [14] of the same substance?
Answer: 14 RLU

Question: What about the Trimeric HA Binding RLU [15] of the same substance?
Answer: 27 RLU

Question: What about the Trimeric HA Binding RLU [16] of the same substance?
Answer: 24 RLU

Question: What about the Trimeric HA Binding RLU [17] of the same substance?
Answer: 37 RLU

Question: And the Trimeric HA Binding RLU [18]?
Answer: 67 RLU

Question: And the Trimeric HA Binding RLU [19]?
Answer: 26 RLU

Question: And the OD450 [20]?
Answer: 0.07 OD450

Question: What about the OD450 [21] of the same substance?
Answer: 0.07 OD450

Question: And the OD450 [22]?
Answer: 0.07 OD450

Question: And the OD450 [23]?
Answer: 0.07 OD450

Question: What about the OD450 [24] of the same substance?
Answer: 0.07 OD450
